Numbered stars: 1 amine (or outer) side, 2 acyl side, 3 side chain; on linkers, the order of the positions; unused ones are H or OH. Bridge positions count the residues as written; N and C are the ends. Square brackets hold non-standard residues; d marks the D form. Primed or numbered codes have the meaning given here. MB(10) = Monomer B = PyrS, pyrrolidine stapling residue with allyl carbamate, (S)-3-amino-1-(allyloxycarbonyl)pyrrolidine-3-carboxylic acid, C=CCOC(=O)N1CC[C@@](N[*:1])(C(=O)[*:2])C1; MB(8) = Monomer B (PyrS), pyrrolidine stapling residue bearing N-allyl carbamate (Alloc), forms carbamate staple with R8 by ring-closing olefin metathesis, i to i+7; MB(9) = Monomer B (PyrS), pyrrolidine stapling residue with N-allyloxycarbonyl (Alloc), forms a carbamate staple with R8 by olefin metathesis; MB″ = Monomer B (PyrS), pyrrolidine stapling residue with N-allyl carbamate, forms carbamate staple with R8 by olefin metathesis; MB(6) = Monomer B (PyrS), N-Alloc pyrrolidine stapling residue, forms carbamate staple with R8 by olefin metathesis; 2Pal = N[C@@H](Cc1ccccn1)C(=O)O; R8 = C=CCCCCCC[C@@](C)(N)C(=O)O; Cha = N[C@@H](CC1CCCCC1)C(=O)O; Cba = N[C@@H](CC1CCC1)C(=O)O; Nva = CCC[C@H](N)C(=O)O
T1: full-length beta-catenin (UniProt P35222 2-781, limits assumed)
T1 construct: mature; also called full-length ß-Catenin; β-catenin
T1 sequence (looked up): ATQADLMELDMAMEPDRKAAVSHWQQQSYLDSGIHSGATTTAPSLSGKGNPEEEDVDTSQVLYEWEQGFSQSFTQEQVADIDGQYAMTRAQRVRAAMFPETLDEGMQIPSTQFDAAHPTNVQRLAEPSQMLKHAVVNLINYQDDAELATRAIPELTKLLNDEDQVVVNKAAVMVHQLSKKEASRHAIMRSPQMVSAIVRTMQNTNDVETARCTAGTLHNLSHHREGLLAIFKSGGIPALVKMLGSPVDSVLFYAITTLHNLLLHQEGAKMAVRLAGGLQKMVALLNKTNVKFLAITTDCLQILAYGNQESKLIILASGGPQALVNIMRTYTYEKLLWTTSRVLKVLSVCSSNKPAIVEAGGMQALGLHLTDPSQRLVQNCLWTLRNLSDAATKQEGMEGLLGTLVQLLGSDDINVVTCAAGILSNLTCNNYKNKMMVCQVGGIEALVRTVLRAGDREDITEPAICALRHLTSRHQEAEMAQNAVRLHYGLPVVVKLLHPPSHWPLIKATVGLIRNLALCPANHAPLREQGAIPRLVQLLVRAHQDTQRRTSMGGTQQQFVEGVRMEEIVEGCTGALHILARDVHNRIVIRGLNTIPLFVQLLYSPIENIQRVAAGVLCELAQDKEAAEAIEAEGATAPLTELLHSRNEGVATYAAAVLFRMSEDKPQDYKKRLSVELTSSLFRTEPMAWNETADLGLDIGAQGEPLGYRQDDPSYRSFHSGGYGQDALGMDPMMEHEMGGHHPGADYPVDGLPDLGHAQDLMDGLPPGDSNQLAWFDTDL

B1: FP0409c (peptide)
peptide: AXILDAHAXRVW
modifications: not fully specified; Ac-A-R8-I-L-D-A-H-A-MB-R-V-W-NH2; carbamate staple R8/MB
B2: FP0564c Isomer 2 (peptide)
peptide: Ac-A[R8]ILDA[2Pal]I[MB″]YVW-NH2
modifications: staple 2-9; not fully specified; printed as Ac-A-R8-I-L-D-A-2pyr-I-MB-Y-V-W-NH2
B3: FP0560c Isomer 1 (peptide)
peptide: Ac-A[R8]ILDA[2Pal]I[MB(8)]SVW-NH2
modifications: staple 2-9; not fully specified; printed as Ac-A-R8-I-L-D-A-2pyr-I-MB-S-V-W-NH2
B4: FP0558c Isomer 1 (peptide)
peptide: Ac-A[R8]ILDA[2Pal]I[MB(9)]NVW-NH2
modifications: staple 2-9; not fully specified; printed as Ac-A-R8-I-L-D-A-2pyr-I-MB-N-V-W-NH2
B5: FP0567c Isomer 1 (peptide)
peptide: Ac-A[R8]ILDA[2Pal]I[MB(6)][Nva]VW-NH2
modifications: staple 2-9; not fully specified; printed as Ac-A-R8-I-L-D-A-2pyr-I-MB-Nva-V-W-NH2
B6: FP0560c Isomer 2 (peptide)
peptide: Ac-A[R8]ILDA[2Pal]I[MB(8)]SVW-NH2
modifications: staple 2-9; not fully specified; printed as Ac-A-R8-I-L-D-A-2pyr-I-MB-S-V-W-NH2
B7: FP0555c Isomer 1 (peptide)
peptide: Ac-A[R8]ILDA[2Pal]I[MB(10)]FVW-NH2
modifications: staple 2-9; not fully specified; printed as Ac-A-R8-I-L-D-A-2pyr-I-MB-F-V-W-NH2
B8: FP0559c Isomer 2 (peptide)
peptide: Ac-A[R8]ILDA[2Pal]I[MB(8)]QVW-NH2
modifications: staple 2-9; not fully specified; printed as Ac-A-R8-I-L-D-A-2pyr-I-MB-Q-V-W-NH2
B9: FP0563c Isomer 2 (peptide)
peptide: Ac-A[R8]ILDA[2Pal]I[MB″]WVW-NH2
modifications: staple 2-9; not fully specified; printed as Ac-A-R8-I-L-D-A-2pyr-I-MB-W-V-W-NH2
B10: FP0540c (peptide)
peptide: Ac-A[R8]ILDAFI[MB(10)]RVW-NH2
modifications: staple 2-9
B11: FP0557c Isomer 2 (peptide)
peptide: Ac-A[R8]ILDA[2Pal]I[MB(9)]LVW-NH2
modifications: staple 2-9; not fully specified; printed as Ac-A-R8-I-L-D-A-2pyr-I-MB-L-V-W-NH2
B12: FP0557c Isomer 1 (peptide)
peptide: Ac-A[R8]ILDA[2Pal]I[MB(9)]LVW-NH2
modifications: staple 2-9; not fully specified; printed as Ac-A-R8-I-L-D-A-2pyr-I-MB-L-V-W-NH2
B13: FP0565c Isomer 1 (peptide)
peptide: Ac-A[R8]ILDA[2Pal]I[MB″][Cba]VW-NH2
modifications: staple 2-9; not fully specified; printed as Ac-A-R8-I-L-D-A-2pyr-I-MB-Cba-V-W-NH2
B14: FP0559c Isomer 1 (peptide)
peptide: Ac-A[R8]ILDA[2Pal]I[MB(9)]QVW-NH2
modifications: staple 2-9; not fully specified; printed as Ac-A-R8-I-L-D-A-2pyr-I-MB-Q-V-W-NH2
B15: FP0554c Isomer 2 (peptide)
peptide: Ac-A[R8]ILDA[2Pal]I[MB(10)]AVW-NH2
modifications: staple 2-9; not fully specified; printed as Ac-A-R8-I-L-D-A-2pyr-I-MB-A-V-W-NH2
B16: FP0561c Isomer 2 (peptide)
peptide: Ac-A[R8]ILDA[2Pal]I[MB(8)]TVW-NH2
modifications: staple 2-9; not fully specified; printed as Ac-A-R8-I-L-D-A-2pyr-I-MB-T-V-W-NH2
B17: FP0556c Isomer 2 (peptide)
peptide: Ac-A[R8]ILDA[2Pal]I[MB(10)]IVW-NH2
modifications: staple 2-9; not fully specified; printed as Ac-A-R8-I-L-D-A-2pyr-I-MB-I-V-W-NH2
B18: FP0566c Isomer 1 (peptide)
peptide: Ac-A[R8]ILDA[2Pal]I[MB(6)][Cha]VW-NH2
modifications: staple 2-9; not fully specified; printed as Ac-A-R8-I-L-D-A-2pyr-I-MB-Cha-V-W-NH2
B19: FP0563c Isomer 1 (peptide)
peptide: Ac-A[R8]ILDA[2Pal]I[MB″]WVW-NH2
modifications: staple 2-9; not fully specified; printed as Ac-A-R8-I-L-D-A-2pyr-I-MB-W-V-W-NH2
B20: FP0554c Isomer 1 (peptide)
peptide: Ac-A[R8]ILDA[2Pal]I[MB(10)]AVW-NH2
modifications: staple 2-9; not fully specified; printed as Ac-A-R8-I-L-D-A-2pyr-I-MB-A-V-W-NH2
B21: FP0562c Isomer 2 (peptide)
peptide: Ac-A[R8]ILDA[2Pal]I[MB(8)]VVW-NH2
modifications: staple 2-9; not fully specified; printed as Ac-A-R8-I-L-D-A-2pyr-I-MB-V-V-W-NH2
B22: FP0555c Isomer 2 (peptide)
peptide: Ac-A[R8]ILDA[2Pal]I[MB(10)]FVW-NH2
modifications: staple 2-9; not fully specified; printed as Ac-A-R8-I-L-D-A-2pyr-I-MB-F-V-W-NH2
B23: FP0562c Isomer 1 (peptide)
peptide: Ac-A[R8]ILDA[2Pal]I[MB(8)]VVW-NH2
modifications: staple 2-9; not fully specified; printed as Ac-A-R8-I-L-D-A-2pyr-I-MB-V-V-W-NH2
B24: FP0556c Isomer 1 (peptide)
peptide: Ac-A[R8]ILDA[2Pal]I[MB(10)]IVW-NH2
modifications: staple 2-9; not fully specified; printed as Ac-A-R8-I-L-D-A-2pyr-I-MB-I-V-W-NH2
B25: FP0561c Isomer 1 (peptide)
peptide: Ac-A[R8]ILDA[2Pal]I[MB(8)]TVW-NH2
modifications: staple 2-9; not fully specified; printed as Ac-A-R8-I-L-D-A-2pyr-I-MB-T-V-W-NH2
B26: FP0565c Isomer 2 (peptide)
peptide: Ac-A[R8]ILDA[2Pal]I[MB(6)][Cba]VW-NH2
modifications: staple 2-9; not fully specified; printed as Ac-A-R8-I-L-D-A-2pyr-I-MB-Cba-V-W-NH2
B27: FP0564c Isomer 1 (peptide)
peptide: Ac-A[R8]ILDA[2Pal]I[MB″]YVW-NH2
modifications: staple 2-9; not fully specified; printed as Ac-A-R8-I-L-D-A-2pyr-I-MB-Y-V-W-NH2
B28: FP0558c Isomer 2 (peptide)
peptide: Ac-A[R8]ILDA[2Pal]I[MB(9)]NVW-NH2
modifications: staple 2-9; not fully specified; printed as Ac-A-R8-I-L-D-A-2pyr-I-MB-N-V-W-NH2

molecular target: T1, full-length beta-catenin; test: competition FP; NB = no binding detected
Experimental: In some embodiments, a competition fluorescence polarization assay is used to assess binding of provided compounds to beta-catenin. In an exemplary procedure, solutions of provided compounds, e.g., provided stapled peptides, were prepared in a buffer (e.g., 50 mM Tris pH 8.0, 250 mM NaCl, 2% glycerol, 0.5 mM EDTA, 0.02% w/v sodium azide) using a 3-fold serial dilution from 5 µM. Probe solution (15 nM full-length ß-Catenin, 20 nM FITC labeled peptide in buffer) was prepared and incubated for a period of time, e.g., 5 minutes, and the a volume, e.g., 40 µL per well plated in suitable plate, e.g., a black polystyrene 384-well plate (Corning). Equal volume of the serial diluted peptide was added to the plate and incubated protected from light for 15 minutes prior to read. Reads were performed on a Spectramax M5 (Molecular Devices) in duplicate. Suitable probe was FITC-PEG1-PQ-S5-ILD-S5-HVRRVWR (SEQ ID NO: 1) (hydrocarbon staple formed by two S5 via olefin metathesis) and/or FITC-bA-PQ-S5-ILD-S5-HVRRVWR (SEQ ID NO: 3) (hydrocarbon staple formed by two S5 via olefin metathesis). […] Another peptide, FPO217c (Ac-AR_8ILDAHIM$B5$RVW (SEQ ID NO: 280), with N-terminal proline removed and valine replaced with isoleucine compared to FP0025c) was prepared.

Binding result, no binding:
B1
B2
B3
B4
B5
B6
B7
B8
B9
B10
B11
B12
B13
B14
B15
B16
B17
B18
B19
B20
B21
B22
B23
B24
B25
B26
B27
B28
